From PMC7784689, “Structural mechanism of phospholipids translocation by MlaFEDB complex” (Cell Research, 2020)

Substrate: Nc1ncnc2c1ncn2[C@@H]1O[C@H](COP(=O)(O)OP(=O)(O)OP(=O)(O)O)[C@@H](O)[C@H]1O
Assay: purified protein
Format: biochemical, Escherichia coli
Settings: nanodisc-embedded complex (POPG), 0-4 mM ATP, 37 °C, 30 min

B1: MlaFEDB (Escherichia coli K-12) (protein)
chain: MEQSVANLVDMRDVSFTRGNRCIFDNISLTVPRGKITAIMGPSGIGKTTLLRLIGGQIAPDHGEILFDGENIPAMSRSRLYTVRKRMSMLFQSGALFTDMNVFDNVAYPLREHTQLPAPLLHSTVMMKLEAVGLRGAAKLMPSELSGGMARRAALARAIALEPDLIMFDEPFVGQDPITMGVLVKLISELNSALGVTCVVVSHDVPEVLSIADHAWILADKKIVAHGSAQALQANPDPRVRQFLDGIADGPVPFRYPAGDYHADLLPGS
notes: mlaFEDCB operon in pET20b, C-terminal His-tag on MlaB; host E. coli C43(DE3); purified in DDM, reconstituted in MSP1D1/POPG nanodisc; MlaC only in traces (by MS); with Intermembrane phospholipid transport system permease protein MlaE
Km: 90 ± 20 µM
